± gives the standard deviation.
Assay: protein stability index of a GFP-peptide fusion (GPS, HEK-293T) (PSI 1-6); higher = more stable
[1] = treatment: DMSO, c terminus: a fixed tail appended
[2] = treatment: MLN4924 1 uM, 8 h, c terminus: a fixed tail appended
[3] = treatment: DMSO, c terminus: native
[4] = treatment: MLN4924 1 uM, 8 h, c terminus: native
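Also: 24-mer peptide tiles fused after GFP, lentivirally expressed, FACS-sorted into six equal bins by GFP/DsRed ratio, decoded by Illumina sequencing, PSI is the read-weighted mean bin number.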

| Sequence | protein stability index [1] | protein stability index [2] | protein stability index [3] | protein stability index [4] |
| --- | --- | --- | --- | --- |
| YFFPVIFSKASDSLQLVFGIELME [MAGEA6] | 3 ± 0.29 | 3.02 ± 0.54 | – | – |
| CDYCDRSFQDNLHNRKKHLNGLQH [ZMAT5] | 3.09 ± 0.71 | 3.11 ± 0.38 | – | – |
| TWLKGKFTELRLLLDEEEALAKKF [TRIM14] | 2.23 ± 0.42 | 2.34 ± 0.23 | – | – |
| SGVGIDGEVLSYLELAQFHNAHQL [RHOBTB1] | 2.56 ± 0.33 | 2.67 ± 0.45 | – | – |
| YSVARQFNLTPPICEQAEYHMFQR [KCNAB2] | 2.64 ± 0.23 | 2.93 ± 0.29 | – | – |
| LATLDPLALDREPPPHLLPEKHQV [WDR88] | 4.06 ± 0.22 | 4.24 ± 0.16 | – | – |
| GCSSSGSCSQGSGILHYAHGDSQQ [CRY1] | 3.75 ± 0.41 | 3.67 ± 0.075 | – | – |
| GSGSSYVQNGTGNAYEEEANKQS [CNOT7] | – | – | 5.37 ± 0.19 | 5.2 ± 0.23 |
| GGTTGYIYSTDLHKLDLNTREWTQ [KLHDC10] | 2.44 ± 0.3 | 2.47 ± 0.43 | – | – |
| LKNIRHRPGGGRVKIESVKLDFKE [MAP2] | 3.22 ± 0.29 | 3.52 ± 0.38 | – | – |
| FFPQHPNFCEPQDYRPMNHEAFKD [CDC25B] | 3.81 ± 0.33 | 4.09 ± 0.21 | – | – |
| VNNYTNSFGGEWSAPDTMKRYSMY [TRIM29] | 2.32 ± 0.19 | 2.62 ± 0.3 | – | – |
| APSPGVKEQAIWKHPQPAPAVTPD [PKD2L1] | 5.15 ± 0.1 | 5.07 ± 0.13 | – | – |
| TNLPIFKLKESTVRRRYSDFEWLR [SNX3] | 2.62 ± 0.3 | 2.53 ± 0.36 | – | – |
| CSPSQMDLLCAQLQLPQLSDLGLL [FANCE] | 2.15 ± 0.42 | 2.13 ± 0.44 | – | – |
| PDLRDIELKLGRKVPESLVRSLRG [LURAP1L] | 3.16 ± 0.4 | 3.17 ± 0.41 | – | – |
| KEEKQRRRCKPKKPTRRDASPESP [GNAS] | 5.43 ± 0.18 | 5.47 ± 0.11 | – | – |
| ASVATWAIFVHRVGQPSIGGKLSP [CTBP1-DT] | 2.65 ± 0.9 | 2.33 ± 0.33 | – | – |
| AVSAMKCGLLPISPEALSLGEVAY [ADD1] | 2.31 ± 0.3 | 2.41 ± 0.066 | – | – |
| IVGYAFHFPHLLSPQIQRSAHRAL [TMEM175] | 2.23 ± 0.24 | 2.54 ± 0.51 | – | – |
| TLLNPRMIVDVTPYMNPSPFTVSP [CLCN6] | 2.32 ± 0.079 | 2.25 ± 0.081 | – | – |
| SVDWLSQSSCSGPTHTPRPADFSL [VENTX] | 3.21 ± 0.25 | 3.28 ± 0.15 | – | – |
| WIQFNHPYTEKPRLWHTACASDEG [KLHDC2] | 2.28 ± 0.31 | 2.4 ± 0.13 | – | – |

| Sequence | protein stability index [1] | protein stability index [2] | protein stability index [3] | protein stability index [4] |
| --- | --- | --- | --- | --- |
| FVVTMLKLIQKKLLDKTCDQVMEF [ZER1] | 3.14 ± 0.39 | 3.15 ± 0.32 | – | – |
| QSPVSPQPPAITQVHRQGERRREL [SMTNL2] | 5.26 ± 0.14 | 5.12 ± 0.42 | – | – |
| YLIMIFLGLYINFRHLYKQRRRRY [HACD3] | 2.55 ± 0.86 | 2.53 ± 0.63 | – | – |
| REEQCAAYNHRTDLFKSFPGPMDW [ADAMTS4] | 3.06 ± 0.45 | 3.1 ± 0.3 | – | – |
| RMLSKENKILQVFWEEHKASLGRE [CBY2] | 2.96 ± 0.39 | 3.35 ± 0.074 | – | – |
| TASTAPPVPATAPSPAPAVAAAAA [SNAP91] | 5.09 ± 0.19 | 5.08 ± 0.12 | – | – |
| TPINQNVSLHQASLGGCSQDFLLF [NFE2L1] | 1.99 ± 0.55 | 2.6 ± 0.58 | – | – |
| KYIHRMMQIEFIKQGSMNFRFIPV [TRAF3IP2] | 3.659 ± 0.005 | 2.21 ± 1.1 | – | – |
| GIGKNVICDRTATPLDAFRMTSAA [GFOD1] | 3.43 ± 0.25 | 3.45 ± 0.17 | – | – |
| LSEDDKLQGAASHVPEGFDPTGPA [EHMT1] | 5.333 ± 0.053 | 5.4 ± 0.073 | – | – |
| NQLVGPESIAHIGDVMFTGTADGR [APMAP] | 4.77 ± 0.31 | 4.69 ± 0.08 | – | – |
| PGNQAEHGAVTVGGTSVGSLGVPG [ZBTB22] | 4.89 ± 0.25 | 4.75 ± 0.26 | – | – |
| QSTVKCLTVLQRLDVWLSGGNDLC [WDR41] | 2.6 ± 0.63 | 2.32 ± 0.4 | – | – |
| EFIMPDSAVVGDVLVLTKPLGTQV [SEPHS2] | 2.3 ± 0.31 | 2.54 ± 0.32 | – | – |
| VRNLQSEVEGVKNIMTQNVERILA [VAMP8] | 3.01 ± 0.41 | 2.96 ± 0.51 | – | – |
| HLSSPAKNFFKKAAAALFGGKKDK [PLK2] | 2.16 ± 0.49 | 2.53 ± 0.55 | – | – |
| QCSQRMLSFSDALLSIIATVMILP [TMEM175] | 3.25 ± 0.4 | 3.33 ± 0.3 | – | – |
| KLSETFLQIYQYVPKDQRLQAIKA [DLC1] | 2.12 ± 0.38 | 2.28 ± 0.44 | – | – |
| SSALHLSKGMSIFLDILRRADKND [NECAB1] | 2.29 ± 0.13 | 2.6 ± 0.31 | – | – |
| TTLLKCYLHTNVALVAPLLRLENN [VPS39] | 2.68 ± 0.54 | 2.77 ± 0.57 | – | – |
| DYSFLSLGVYSALREIAFTRQLHE [ATE1] | 2.99 ± 1.3 | 2.68 ± 0.94 | – | – |
| RFEQEAVAVDSNLRVRELQRKVDG [CCDC89] | 4.98 ± 0.28 | 4.9 ± 0.29 | – | – |
| AVLAASSPYFHDQVLLKGMTSISL [ZBTB22] | 2.7 ± 0.32 | 2.47 ± 0.34 | – | – |

| Sequence | protein stability index [1] | protein stability index [2] | protein stability index [3] | protein stability index [4] |
| --- | --- | --- | --- | --- |
| IGGFTALHYAAMHGRARIARLMLE [ASB7] | 2.15 ± 0.23 | 2.31 ± 0.22 | – | – |
| LTQDWVQENYLEYRQVPGSDPARY [MAGEA10] | 4.06 ± 0.22 | 3.88 ± 0.2 | – | – |
| DQVSACIPVFRLARRRKKILFYCH [ALG2] | 2.22 ± 0.47 | 2.24 ± 0.075 | – | – |
| YPITLYLEKEREKEISDDEAEEEK [HSP90AB1] | 5.01 ± 0.39 | 5.3 ± 0.083 | – | – |
| GLQAPPPDDVDYATNPHVKPPYSY [FOXJ1] | 4.42 ± 0.29 | 4.46 ± 0.19 | – | – |
| SPIKLSPTSPVYRGSSSGPSSPAR [MTUS2] | 4.34 ± 0.21 | 4.39 ± 0.2 | – | – |
| ENNMLQPETHIFTAPEEVPKVSDQ [DMRTC1] | 5.57 ± 0.18 | 5.56 ± 0.21 | – | – |
| IPKCSKIVIDFDSINSRPSQKLQ [DCTD] | – | – | 3.14 ± 0.31 | 3.38 ± 0.32 |
| ASFRVTTGTSNTTAIKSIEFARKG [RBBP5] | 3.91 ± 0.62 | 3.86 ± 0.23 | – | – |
| LAEAKYYLVQGLVEECQAALQNKD [KCTD10] | 3.24 ± 0.17 | 3.38 ± 0.29 | – | – |
| NKYMVTDGAAYIGNFDWVGNDFTQ [PLD5] | 2.87 ± 0.25 | 2.62 ± 0.3 | – | – |
| NFNPLLVAGGVAVAAIALILGVAF [CEND1] | 3.24 ± 0.27 | 3.47 ± 0.22 | – | – |
| QLAQDDIDGIQAIYGRSQNPVQPI [MMP1] | 3.69 ± 0.1 | 3.9 ± 0.14 | – | – |
| KEEGLPEEEPSHVTGREGFPTDAP [ZNF8] | 5.45 ± 0.23 | 5.57 ± 0.3 | – | – |
| PPGIPPLMPGVPPLMPGMPPVMPG [ZNF207] | 3.9 ± 0.23 | 4.07 ± 0.21 | – | – |
| SRGGTRGWLPSHEGHLDDGGYTPD [RBMY1A1] | 4.73 ± 0.29 | 4.75 ± 0.24 | – | – |
| STCFERPCFKWYTSPWSECTKTCG [ADAMTSL2] | 2.47 ± 0.64 | 2.75 ± 0.57 | – | – |
| NENPNNFQILLLSDPSTIEASNFQ [PNLIPRP1] | 3.33 ± 0.36 | 3.44 ± 0.5 | – | – |
| NLVLSEDRKSVKFVETRLRDLPDT [TRIM39] | 4.31 ± 0.25 | 4.37 ± 0.2 | – | – |
| HDGEDVACPQGGVQYGAGVACSET [LOXL2] | 4.99 ± 0.31 | 5.42 ± 0.32 | – | – |
| QLKLDHYRAALRSCSLVLEHQPDN [FKBP8] | 2.93 ± 0.18 | 2.98 ± 0.27 | – | – |
| SLGLSHSTDIGALMYPSYTFSGDV [MMP1] | 3.15 ± 0.4 | 3.19 ± 0.46 | – | – |
| DSMPQDLSEALKEATKEVHTQAEN [HMOX1] | 5.39 ± 0.26 | 5.51 ± 0.19 | – | – |

| Sequence | protein stability index [1] | protein stability index [2] | protein stability index [3] | protein stability index [4] |
| --- | --- | --- | --- | --- |
| LKAEELLLKIHEVSTVSHADADCF [CASP6] | 3.03 ± 0.15 | 3.14 ± 0.28 | – | – |
| FQSRLPYQYLHYALFKANRLEKAV [P3H4] | 2.37 ± 0.53 | 2.31 ± 0.56 | – | – |
| PCLGHTFNAGIQQAFQLPKLGALL [ZBED1] | 2.36 ± 0.37 | 2.02 ± 0.24 | – | – |
| QYMNEGELRVLADTYDSVYLHPNS [HDAC6] | 2.83 ± 0.21 | 3.33 ± 0.52 | – | – |
| DDGRLLEYDTVTREVKVLLDQLRF [APMAP] | 2.62 ± 0.2 | 3.05 ± 0.38 | – | – |
| RKRKKATEAIDSLRKSKRLRNRK [FBXO28] | – | – | 4.97 ± 0.1 | 5.19 ± 0.12 |
| PPLNPTSWWADLRALARNLIFGLI [SPNS1] | 4.75 ± 0.3 | 4.74 ± 0.32 | – | – |
| QWNAGEKKLTGGANWQPKVAPATW [SNAP91] | 2.98 ± 0.33 | 3.07 ± 0.14 | – | – |
| AKAPPTACYAGAAPAPSQVKSKAK [CEBPB] | 5.36 ± 0.19 | 5.21 ± 0.2 | – | – |
| ANTMEHLSLLDNNIPGNSTLITAV [FBXO33] | 3.16 ± 0.17 | 3.25 ± 0.33 | – | – |
| VQAIFSGDPEEIRMLIHKTEDVNT [ANKRD44] | 3.76 ± 0.11 | 3.58 ± 0.11 | – | – |
| PGFSSLSLSDQMSVLQSVWMEVLV [ESRRA] | 2.38 ± 0.33 | 2.08 ± 0.27 | – | – |
| QQYAAQQYPGNYEQQQILIRQLQE [ACBD3] | 4.07 ± 0.19 | 4.06 ± 0.22 | – | – |
| EQLERIERKNAEMYKLSSEQFHEA [CHCHD6] | 4.52 ± 0.46 | 4.78 ± 0.12 | – | – |
| ALEFWRQEELTRINQSFTGAERKA [IQUB] | 3.87 ± 0.52 | 3.73 ± 0.43 | – | – |
| VLFNEKIREQIKKYRRHFLRFCHN [EIF5] | 2.82 ± 0.29 | 3 ± 0.65 | – | – |
| PAGEMKPMPLSEGKSILLFGGAAA [BCL2L13] | 3.53 ± 0.15 | 3.75 ± 0.27 | – | – |
| AARAAGRDVAAEAVARSPKRPAWG [POMT2] | 4.1 ± 0.29 | 4.29 ± 0.51 | – | – |
| GEEGAPGKWQQQGDLQDTKENREE [CHGB] | 5.57 ± 0.31 | 5.52 ± 0.28 | – | – |
| FKKFIRRDFLLDEANGLLPDDKLT [SPOPL] | 2.27 ± 0.097 | 2.41 ± 0.24 | – | – |

From the supplement of paper PMC10567573
